Among the data in publication PMC4808492 are percent of enzyme activity bound to the column values, retold here.

Read-outs that look alike come from different tables or passages of the source.

The target of assay [1] is cation-independent M6P receptor (CI-MPR), on an affinity column (UniProt P08169). Kind of assay: CI-MPR affinity column.
The target is the same in assay [2]. Kind of assay: CI-MPR affinity column. The source holds these as a separate data set.

UniProt P08169, sequence (P08169 45-2499): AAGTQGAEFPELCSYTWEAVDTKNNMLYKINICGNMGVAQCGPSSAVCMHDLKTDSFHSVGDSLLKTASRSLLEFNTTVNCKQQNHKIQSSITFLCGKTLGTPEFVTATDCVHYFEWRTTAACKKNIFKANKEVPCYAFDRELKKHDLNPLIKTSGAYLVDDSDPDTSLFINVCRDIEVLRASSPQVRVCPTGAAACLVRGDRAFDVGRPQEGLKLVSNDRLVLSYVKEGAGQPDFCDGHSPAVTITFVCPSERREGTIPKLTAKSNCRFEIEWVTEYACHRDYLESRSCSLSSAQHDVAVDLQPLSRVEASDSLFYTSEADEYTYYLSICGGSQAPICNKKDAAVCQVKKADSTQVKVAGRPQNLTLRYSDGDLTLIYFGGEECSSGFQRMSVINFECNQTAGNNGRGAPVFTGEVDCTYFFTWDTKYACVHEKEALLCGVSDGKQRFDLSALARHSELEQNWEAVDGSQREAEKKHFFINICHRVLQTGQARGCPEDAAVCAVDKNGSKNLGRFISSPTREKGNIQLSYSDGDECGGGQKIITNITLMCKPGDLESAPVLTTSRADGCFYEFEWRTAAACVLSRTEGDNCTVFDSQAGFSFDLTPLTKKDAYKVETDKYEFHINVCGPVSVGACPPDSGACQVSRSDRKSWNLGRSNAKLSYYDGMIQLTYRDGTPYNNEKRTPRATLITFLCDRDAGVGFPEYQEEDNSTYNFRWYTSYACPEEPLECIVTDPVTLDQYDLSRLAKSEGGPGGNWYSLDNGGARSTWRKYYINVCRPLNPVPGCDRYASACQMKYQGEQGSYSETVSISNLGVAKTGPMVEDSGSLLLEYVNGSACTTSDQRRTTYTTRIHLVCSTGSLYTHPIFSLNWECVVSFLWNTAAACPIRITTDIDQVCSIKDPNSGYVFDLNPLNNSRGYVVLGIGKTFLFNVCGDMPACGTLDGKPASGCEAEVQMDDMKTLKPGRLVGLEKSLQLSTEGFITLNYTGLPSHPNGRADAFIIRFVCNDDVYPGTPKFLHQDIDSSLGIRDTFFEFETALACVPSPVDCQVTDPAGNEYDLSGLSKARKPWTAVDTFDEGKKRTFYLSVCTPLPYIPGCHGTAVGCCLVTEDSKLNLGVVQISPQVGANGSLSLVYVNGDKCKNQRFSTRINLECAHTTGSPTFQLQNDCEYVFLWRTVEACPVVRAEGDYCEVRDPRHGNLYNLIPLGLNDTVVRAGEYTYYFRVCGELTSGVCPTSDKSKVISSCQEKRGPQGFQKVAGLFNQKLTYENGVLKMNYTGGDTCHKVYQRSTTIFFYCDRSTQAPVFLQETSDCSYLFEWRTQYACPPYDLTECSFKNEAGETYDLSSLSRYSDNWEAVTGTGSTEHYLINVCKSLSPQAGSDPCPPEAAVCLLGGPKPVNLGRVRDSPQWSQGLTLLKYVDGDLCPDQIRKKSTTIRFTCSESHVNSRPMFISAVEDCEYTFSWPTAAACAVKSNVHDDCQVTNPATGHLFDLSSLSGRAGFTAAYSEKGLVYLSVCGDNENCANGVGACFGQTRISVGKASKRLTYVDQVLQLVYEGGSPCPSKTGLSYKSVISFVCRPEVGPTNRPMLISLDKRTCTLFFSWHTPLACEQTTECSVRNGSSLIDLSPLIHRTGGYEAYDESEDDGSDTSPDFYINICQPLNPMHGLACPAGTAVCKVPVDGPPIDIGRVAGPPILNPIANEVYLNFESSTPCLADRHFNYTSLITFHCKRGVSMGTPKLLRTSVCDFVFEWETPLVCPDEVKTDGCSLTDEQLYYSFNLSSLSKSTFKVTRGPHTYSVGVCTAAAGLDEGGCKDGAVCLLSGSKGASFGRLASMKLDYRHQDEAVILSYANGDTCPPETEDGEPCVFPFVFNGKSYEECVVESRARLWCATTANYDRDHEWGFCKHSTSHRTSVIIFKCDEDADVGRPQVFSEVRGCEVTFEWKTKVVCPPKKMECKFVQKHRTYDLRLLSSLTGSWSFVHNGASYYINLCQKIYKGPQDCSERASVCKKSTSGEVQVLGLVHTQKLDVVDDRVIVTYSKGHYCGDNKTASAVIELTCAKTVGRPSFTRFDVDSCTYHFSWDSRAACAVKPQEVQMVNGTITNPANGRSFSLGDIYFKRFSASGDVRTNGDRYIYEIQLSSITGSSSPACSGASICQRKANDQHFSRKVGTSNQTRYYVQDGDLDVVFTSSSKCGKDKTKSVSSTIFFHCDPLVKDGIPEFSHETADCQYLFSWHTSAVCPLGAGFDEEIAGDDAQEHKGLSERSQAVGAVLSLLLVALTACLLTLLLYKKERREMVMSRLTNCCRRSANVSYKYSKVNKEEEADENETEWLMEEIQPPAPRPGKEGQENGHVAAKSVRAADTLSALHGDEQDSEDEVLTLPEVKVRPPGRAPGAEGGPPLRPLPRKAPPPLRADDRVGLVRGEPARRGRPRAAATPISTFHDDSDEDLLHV

“zebrafish cathepsin D (Ctsd) from MLII (gnptab morphant) embryos (enzyme)” returned a percent of enzyme activity bound to the column in assay [1] of 5%. As for “zebrafish cathepsin D (Ctsd) from WT animals (enzyme)”, the figures for the percent of enzyme activity bound to the column in assay [2] and in assay [1] were 24.2% and 16%, respectively. The like results for “zebrafish cathepsin K (Ctsk) from WT animals (enzyme)” were, in that order, 93.1% and 86%. For the substance “zebrafish cathepsin K (Ctsk) from MLII (gnptab morphant) embryos (enzyme)”, the percent of enzyme activity bound to the column in assay [1] turned out to be 17.2%.
